The supplement of paper PMC11316812
± gives the standard deviation of the averaged measurements.

Tests used:
[1] = tested on: hTERT-HMEC; test: percentage of EdU-negative (G0-arrested) nuclei per well, 72 h; higher = more G0 arrest; settings: reference: sequence is the full UniProt precursor, the tested protein was the secreted form or ectodomain
[2] = tested on: MCF7; test: as above; settings: reference: sequence is the full UniProt precursor, the tested protein was the secreted form or ectodomain
[3] = protein concentration 0.0225 µM
[4] = protein concentration 0.02225 µM
[5] = protein concentration 0.2225 µM
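Also: secreted proteins added to cultured cells, EdU pulse at the end, nuclei found by Hoechst imaging, EdU status from nuclear versus surrounding ring intensity ratio, PBS as neutral control.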

Sequence: MGLFRGFVFLLVLCLLHQSNTSFIKLNNNGFEDIVIVIDPSVPEDEKIIEQIEDMVTTASTYLFEATEKRFFFKNVSILIPENWKENPQYKRPKHENHKHADVIVAPPTLPGRDEPYTKQFTECGEKGEYIHFTPDLLLGKKQNEYGPPGKLFVHEWAHLRWGVFDEYNEDQPFYRAKSKKIEATRCSAGISGRNRVYKCQGGSCLSRACRIDSTTKLYGKDCQFFPDKVQTEKASIMFMQSIDSVVEFCNEKTHNQEAPSLQNIKCNFRSTWEVISNSEDFKNTIPMVTPPPPPVFSLLKISQRIVCLVLDKSGSMGGKDRLNRMNQAAKHFLLQTVENGSWVGMVHFDSTATIVNKLIQIKSSDERNTLMAGLPTYPLGGTSICSGIKYAFQVIGELHSQLDGSEVLLLTDGEDNTASSCIDEVKQSGAIVHFIALGRAADEAVIEMSKITGGSHFYVSDEAQNNGLIDAFGALTSGNTDLSQKSLQLESKGLTLNSNAWMNDTVIIDSTVGKDTFFLITWNSLPPSISLWDPSGTIMENFTVDATSKMAYLSIPGTAKVGTWAYNLQAKANPETLTITVTSRAANSSVPPITVNAKMNKDVNSFPSPMIVYAEILQGYVPVLGANVTAFIESQNGHTEVLELLDNGAGADSFKNDGVYSRYFTAYTENGRYSLKVRAHGGANTARLKLRPPLNRAAYIPGWVVNGEIEANPPRPEIDEDTQTTLEDFSRTASGGAFVVSQVPSLPLPDQYPPSQITDLDATVHEDKIILTWTAPGDNFDVGKVQRYIIRISASILDLRDSFDDALQVNTTDLSPKEANSKESFAFKPENISEENATHIFIAIKSIDKSNLTSKVSNIAQVTLFIPQANPDDIDPTPTPTPTPTPDKSHNSGVNISTLVLSVIGSVVIVNFILSTTI [Q14CN2]
- percentage of EdU-negative [1, 3]: 6.239 ± 0.015%
- percentage of EdU-negative ([1]; protein concentration 0.225 µM): 66 ± 6.4%
- percentage of EdU-negative [2, 3]: 26.84 ± 0.26%
- percentage of EdU-negative ([2]; protein concentration 0.225 µM): 30.6 ± 2%

Sequence: MGLGPVFLLLAGIFPFAPPGAAAEPHSLRYNLTVLSWDGSVQSGFLTEVHLDGQPFLRCDRQKCRAKPQGQWAEDVLGNKTWDRETRDLTGNGKDLRMTLAHIKDQKEGLHSLQEIRVCEIHEDNSTRSSQHFYYDGELFLSQNLETKEWTMPQSSRAQTLAMNVRNFLKEDAMKTKTHYHAMHADCLQELRRYLKSGVVLRRTVPPMVNVTRSEASEGNITVTCRASGFYPWNITLSWRQDGVSLSHDTQQWGDVLPDGNGTYQTWVATRICQGEEQRFTCYMEHSGNHSTHPVPSGKVLVLQSHWQTFHVSAVAAAAIFVIIIFYVRCCKKKTSAAEGPELVSLQVLDQHPVGTSDHRDATQLGFQPLMSDLGSTGSTEGA
- percentage of EdU-negative [1, 4]: 5.41 ± 0.075%
- percentage of EdU-negative [1, 5]: 6.78 ± 1.8%
- percentage of EdU-negative [2, 4]: 24.7 ± 0.99%
- percentage of EdU-negative [2, 5]: 26.3 ± 1.6%

Sequence: MGLGTLSPRMLVWLVASGIVFYGELWVCAGLDYDYTFDGNEEDKTETIDYKDPCKAAVFWGDIALDDEDLNIFQIDRTIDLTQNPFGNLGHTTGGLGDHAMSKKRGALYQLIDRIRRIGFGLEQNNTVKGKVPLQFSGQNEKNRVPRAATSRTERIWPGGVIPYVIGGNFTGSQRAMFKQAMRHWEKHTCVTFIERSDEESYIVFTYRPCGCCSYVGRRGNGPQAISIGKNCDKFGIVVHELGHVIGFWHEHTRPDRDNHVTIIRENIQPGQEYNFLKMEPGEVNSLGERYDFDSIMHYARNTFSRGMFLDTILPSRDDNGIRPAIGQRTRLSKGDIAQARKLYRCPACGETLQESNGNLSSPGFPNGYPSYTHCIWRVSVTPGEKIVLNFTTMDLYKSSLCWYDYIEVRDGYWRKSPLLGRFCGDKLPEVLTSTDSRMWIEFRSSSNWVGKGFAAVYEAICGGEIRKNEGQIQSPNYPDDYRPMKECVWKITVSESYHVGLTFQSFEIERHDNCAYDYLEVRDGTSENSPLIGRFCGYDKPEDIRSTSNTLWMKFVSDGTVNKAGFAANFFKEEDECAKPDRGGCEQRCLNTLGSYQCACEPGYELGPDRRSCEAACGGLLTKLNGTITTPGWPKEYPPNKNCVWQVVAPTQYRISVKFEFFELEGNEVCKYDYVEIWSGLSSESKLHGKFCGAEVPEVITSQFNNMRIEFKSDNTVSKKGFKAHFFSDKDECSKDNGGCQHECVNTMGSYMCQCRNGFVLHDNKHDCKEAECEQKIHSPSGLITSPNWPDKYPSRKECTWEISATPGHRIKLAFSEFEIEQHQECAYDHLEVFDGETEKSPILGRLCGNKIPDPLVATGNKMFVRFVSDASVQRKGFQATHSTECGGRLKAESKPRDLYSHAQFGDNNYPGQVDCEWLLVSERGSRLELSFQTFEVEEEADCGYDYVELFDGLDSTAVGLGRFCGSGPPEEIYSIGDSVLIHFHTDDTINKKGFHIRYKSIRYPDTTHTKK
- percentage of EdU-negative ([1]; protein concentration 0.014 µM): 4.501 ± 0.026%
- percentage of EdU-negative ([1]; protein concentration 0.14 µM): 5.35 ± 1.3%
- percentage of EdU-negative ([2]; protein concentration 0.014 µM): 24.6 ± 2.5%
- percentage of EdU-negative ([2]; protein concentration 0.14 µM): 29.6 ± 1.9%

Sequence: MGLHLRPYRVGLLPDGLLFLLLLLMLLADPALPAGRHPPVVLVPGDLGNQLEAKLDKPTVVHYLCSKKTESYFTIWLNLELLLPVIIDCWIDNIRLVYNKTSRATQFPDGVDVRVPGFGKTFSLEFLDPSKSSVGSYFHTMVESLVGWGYTRGEDVRGAPYDWRRAPNENGPYFLALREMIEEMYQLYGGPVVLVAHSMGNMYTLYFLQRQPQAWKDKYIRAFVSLGAPWGGVAKTLRVLASGDNNRIPVIGPLKIREQQRSAVSTSWLLPYNYTWSPEKVFVQTPTINYTLRDYRKFFQDIGFEDGWLMRQDTEGLVEATMPPGVQLHCLYGTGVPTPDSFYYESFPDRDPKICFGDGDGTVNLKSALQCQAWQSRQEHQVLLQELPGSEHIEMLANATTLAYLKRVLLGP [Q8NCC3]
- percentage of EdU-negative [1, 3]: 4.6 ± 0.49%
- percentage of EdU-negative ([1]; protein concentration 0.225 µM): 6.68 ± 0.68%
- percentage of EdU-negative [2, 3]: 25.3 ± 2.1%
- percentage of EdU-negative ([2]; protein concentration 0.225 µM): 24.9 ± 0.58%

Sequence: MGLIWLLLLSLLEPGWPAAGPGARLRRDAGGRGGVYEHLGGAPRRRKLYCATKYHLQLHPSGRVNGSLENSAYSILEITAVEVGIVAIRGLFSGRYLAMNKRGRLYASEHYSAECEFVERIHELGYNTYASRLYRTVSSTPGARRQPSAERLWYVSVNGKGRPRRGFKTRRTQKSSLFLPRVLDHRDHEMVRQLQSGLPRPPGKGVQPRRRRQKQSPDNLEPSHVQASRLGSQLEASAH
- percentage of EdU-negative ([1]; protein concentration 0.01 µM): 5.1 ± 0.81%
- percentage of EdU-negative ([1]; protein concentration 0.1 µM): 6.93 ± 0.14%
- percentage of EdU-negative ([2]; protein concentration 0.01 µM): 26.1 ± 0.46%
- percentage of EdU-negative ([2]; protein concentration 0.1 µM): 27.4 ± 0.42%
